Assay [1] concerns the target T1, human Nectin-4 at the surface of SUM185 and SUM190 human breast cancer tumor cells (human, UniProt Q96NY8 32-510).
T1 sequence: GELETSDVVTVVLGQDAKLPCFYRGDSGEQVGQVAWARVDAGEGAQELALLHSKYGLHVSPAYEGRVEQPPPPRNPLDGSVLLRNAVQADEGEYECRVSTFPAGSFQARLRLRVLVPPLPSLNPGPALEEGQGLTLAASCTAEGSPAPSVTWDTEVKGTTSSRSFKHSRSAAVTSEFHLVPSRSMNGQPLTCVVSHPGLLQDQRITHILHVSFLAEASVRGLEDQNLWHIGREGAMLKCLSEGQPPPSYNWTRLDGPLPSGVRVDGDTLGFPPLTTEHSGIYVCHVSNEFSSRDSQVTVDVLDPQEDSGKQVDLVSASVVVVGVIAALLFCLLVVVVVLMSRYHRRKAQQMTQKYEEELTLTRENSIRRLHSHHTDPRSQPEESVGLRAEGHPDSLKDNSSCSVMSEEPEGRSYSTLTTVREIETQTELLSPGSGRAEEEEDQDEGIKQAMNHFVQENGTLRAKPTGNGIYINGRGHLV
In words: cell-based or functional assay.

In assay [2] the target is T2, modified Nectin-4 having the Ig-like C2 type 1 and the Ig-like C2 type 2 domains and lacking the Ig-like V … (human, UniProt Q96NY8 148-510).
T2 construct: also called C1C2 construct
T2 sequence: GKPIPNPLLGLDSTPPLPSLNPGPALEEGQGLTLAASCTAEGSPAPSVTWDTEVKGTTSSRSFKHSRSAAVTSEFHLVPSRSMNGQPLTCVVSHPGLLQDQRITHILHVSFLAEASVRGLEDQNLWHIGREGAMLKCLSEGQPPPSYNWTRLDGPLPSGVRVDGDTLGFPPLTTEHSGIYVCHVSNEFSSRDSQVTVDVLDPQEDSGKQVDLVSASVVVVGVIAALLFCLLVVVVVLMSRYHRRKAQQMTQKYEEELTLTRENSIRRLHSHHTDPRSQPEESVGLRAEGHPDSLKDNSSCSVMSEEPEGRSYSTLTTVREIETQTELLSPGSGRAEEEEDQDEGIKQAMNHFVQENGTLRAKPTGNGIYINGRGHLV
In words: flow cytometry on CHO cells expressing Nectin4-C1C2-V5.

Assay [3] deals with T3, wild-type human Nectin-4 protein expressed on CHO cells (huNectin4 CI.3C8 cell line) (human, UniProt Q96NY8 32-510).
T3 construct: also called whole Nectin-4 protein; wild type Nectin-4
T3 sequence: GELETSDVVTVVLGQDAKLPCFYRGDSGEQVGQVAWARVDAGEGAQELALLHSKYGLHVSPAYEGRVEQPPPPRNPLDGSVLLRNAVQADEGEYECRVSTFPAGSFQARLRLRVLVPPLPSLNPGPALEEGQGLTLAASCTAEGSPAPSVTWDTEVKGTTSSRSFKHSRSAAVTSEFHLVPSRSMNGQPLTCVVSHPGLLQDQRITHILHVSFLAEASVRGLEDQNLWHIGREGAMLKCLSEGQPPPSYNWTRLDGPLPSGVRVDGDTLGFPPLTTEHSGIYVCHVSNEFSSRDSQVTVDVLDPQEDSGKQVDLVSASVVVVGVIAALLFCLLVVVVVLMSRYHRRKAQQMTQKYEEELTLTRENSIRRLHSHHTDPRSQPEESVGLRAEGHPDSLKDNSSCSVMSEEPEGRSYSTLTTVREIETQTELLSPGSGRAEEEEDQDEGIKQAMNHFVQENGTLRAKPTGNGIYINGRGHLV
The assay is described as follows: flow cytometry on CHO cells expressing wild-type human Nectin-4.

B1: N4 ADC1: anti-Nectin-4 antibody (VH and VL of SEQ ID NOS: 9 and 10, human IgG1) conjugated to a linker-camptothecin analogue (antibody, V domains shown)
VH: QVQLKQSGPGLVQPSQSLSITCTVSGFSLTNYGVHWVRQSPGKGLEWLGVIWSGGSTDYNAAFISRLSISKDTSKSQVFFKMNSLQADDTAIYYCARELIHAMDNWGQGTSVTVSS
VL: DIQMTQSPASLSVSVGETVTITCRASENIYSNLAWYQQKQGNSPQLLVFAATNLADGVPSRFSGSGSGTQYSLKINSLQSEDFGTYYCQHFWGTPTFGGGTKLEIK
modifications: linker-camptothecin analogue conjugated stochastically via cysteine residues after partial reduction of interchain disulfide; average drug:antibody ratio of about 8
Consider B1, for which, in assay [1], the “IC50 of cell death, SUM185 cells, Cell Titer Glo viability at day 6” value amounted to 0.05 nM and the “IC50 of cell death, SUM190 cells, Cell Titer Glo viability at day 6” value was 0.1 nM.

B2: N4 ADC2: anti-Nectin-4 antibody (VH and VL of SEQ ID NOS: 9 and 10, human IgG1) conjugated to a SN-38 containing linker (antibody, V domains shown)
VH: QVQLKQSGPGLVQPSQSLSITCTVSGFSLTNYGVHWVRQSPGKGLEWLGVIWSGGSTDYNAAFISRLSISKDTSKSQVFFKMNSLQADDTAIYYCARELIHAMDNWGQGTSVTVSS
VL: DIQMTQSPASLSVSVGETVTITCRASENIYSNLAWYQQKQGNSPQLLVFAATNLADGVPSRFSGSGSGTQYSLKINSLQSEDFGTYYCQHFWGTPTFGGGTKLEIK
modifications: SN-38 containing linker conjugated via cysteine residues after partial reduction of interchain disulfide
For the molecule B2, in assay [1], the “IC50 of cell death, SUM190 cells, Cell Titer Glo viability at day 6” value amounted to 0.4 nM.

B3: N41 (VH and VL of SEQ ID NOS: 9 and 10 as human IgG1 isotype) (antibody, V domains shown)
VH: QVQLKQSGPGLVQPSQSLSITCTVSGFSLTNYGVHWVRQSPGKGLEWLGVIWSGGSTDYNAAFISRLSISKDTSKSQVFFKMNSLQADDTAIYYCARELIHAMDNWGQGTSVTVSS
VL: DIQMTQSPASLSVSVGETVTITCRASENIYSNLAWYQQKQGNSPQLLVFAATNLADGVPSRFSGSGSGTQYSLKINSLQSEDFGTYYCQHFWGTPTFGGGTKLEIK
notes: also called mAbC
Take B3: the binding result is recorded as “no binding” in assay [2] and “binds” in assay [3].

B4: enfortumab (VH and VL of SEQ ID NOS: 3 and 4 as human IgG1 isotype) (antibody, V domains shown)
VH: EVQLVESGGGLVQPGGSLRLSCAASGFTFSSYNMNWVRQAPGKGLEWVSYISSSSSTIYYADSVKGRFTISRDNAKNSLSLQMNSLRDEDTAVYYCARAYYYGMDVWGQGTTVTVSS
VL: DIQMTQSPSSVSASVGDRVTITCRASQGISGWLAWYQQKPGKAPKFLIYAASTLQSGVPSRFSGSGSGTDFTLTISSLQPEDFATYYCQQANSFPPTFGGGTKVEIKR
notes: also called mAbA; ASG-22ME
Turning to B4, in assay [2], the binding result is recorded as “no binding”.

These data come from US20230099149A1 (INNATE PHARMA, published 2023).
